Data published in paper PMC6811742, “No interactions between heparin and atacicept, an antagonist of B cell survival cytokines” (British Journal of Pharmacology, 2019).

B1: Atacicept (TACI (30–110)‐Fc) (Fc fusion, human, UniProt O14836 30-110, looked up)
chain: AMRSCPEEQYWDPLLGTCMSCKTICNHQSQRTCAAFCRSLSCRKEQGKFYDHLLRDCISCASICGQHPKQCAYFCENKLRS
notes: also called TACI‐Fc; dimeric atacicept; source: provided by Merck (Darmstadt, Germany); also in sera of human subjects after 150 mg subcutaneously
B2: Flag‐ACRP‐hAPRIL (ligand)
chain: not shown
notes: linker after the Flag tag; human ACRP30 (adiponectin), residues 16-108; linker; human APRIL, residues 105-250, starting at alanine 105 just after the furin cleavage site; also called Flag‐APRIL; ps1088; source: HEK293 cells, purified on anti‐Flag agarose

Key:
[1] = target: T1, Flag‐mBAFF (mouse, UniProt Q9WU72 127-309); assay: AlphaScreen or HTRF; AlphaLISA of atacicept diluted in mouse plasma with a matched pair of anti‐TACI antibodies (biotinylated ATA2, ATA3 acceptor beads), with or without recombinant mouse BAFF, with or without acid dissociation; conversely AlphaLISA of mouse BAFF in Baff−/− serum with 0, 100 or 2000 ng/ml atacicept; details: both partners purified
T1 construct: linker after the Flag tag; mouse BAFF, residues 127-309; that it is Flag‐mBAFF (ps657) is surmised; Encoded with an HA signal before the Flag tag; also called recombinant mouse BAFF; mouse BAFF

[2] = target: B1; assay: ELISA; plates coated with atacicept at 1 μg/ml in PBS, blocked, incubated with the indicated concentrations of Flag‐APRIL; revealed with anti‐Flag reagents; details: both partners purified

T1 sequence (Q9WU72 other isoform, or with tags, fused parts or gaps): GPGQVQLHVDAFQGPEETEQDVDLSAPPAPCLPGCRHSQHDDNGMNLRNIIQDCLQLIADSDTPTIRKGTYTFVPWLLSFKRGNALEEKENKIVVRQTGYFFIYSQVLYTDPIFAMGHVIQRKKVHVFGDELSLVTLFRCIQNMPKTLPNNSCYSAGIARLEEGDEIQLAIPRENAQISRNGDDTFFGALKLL

binding result [1] | binding result [2] | Binder
binds | – | B1
– | binds | B2
